Results from patent US20240343814A1.

Experiments:
[1] = target: Recombinant human his-tagged IGF 1R extracellular domain protein (human) (UniProt P08069); assay: SPR, captured IgG, IGF-1R ECD-his analyte, dissociation pH 6
[2] = target: Recombinant human his-tagged IGF 1R extracellular domain protein (human) (UniProt P08069); assay: SPR, captured IgG, IGF-1R ECD-his analyte, dissociation pH 7.4

Binder | Kd [1] [nM] | koff [1] [s⁻¹] | kon [1] [M⁻¹ s⁻¹] | Kd [2] [nM] | koff [2] [s⁻¹] | kon [2] [M⁻¹ s⁻¹]
VRDN-02543 (antibody, V domains shown) VH: EVQLVQSGGGLVKPGGSLRLSCAASGFTFSSFAMHWVRQAPGKGLEWISVIDTRGATYYADSVKGRFTISRDNAKNSLYLQMNSLRAEDTAVYYCARLGNFYYGMDVWGQGTTVTVSS VL: EIVLTQSPGTLSVSPGERATLSCRASQSIGSSLHWYQQKPGQAPRLLIKYASQHLSGIPDRFSGSGSGTDFTLTISRLEPEDFAVYYCHQSSRLPHTFGQGTKVEIK | 0.025 | 1e-06 | 40000 | 0.391 | 4.38e-05 | 112000
VRDN-02557 (antibody, V domains shown) VH: EVQLVQSGGGLVKPGGSLRLSCAASGFTFSSFAMHWVRQAPGKGLEWISVIDTRGATYYADSVKGRFTISRDNAKNSLYLQMNSLRAEDTAVYYCARLGNFYYGHDVWGQGTTVTVSS VL: EIVLTQSPGTLSVSPGERATLSCRASQSIGSSLHWYQQKPGQAPRLLIKHASQSLSGIPDRFSGSGSGTDFTLTISRLEPEDFAVYYCHQSSRLPHTFGQGTKVEIK | 0.615 | 0.00239 | 3.88e+06 | 8.16 | 0.00119 | 146000
VRDN-02550 (antibody, V domains shown) VH: EVQLVQSGGGLVKPGGSLRLSCAASGFTFSSFAMHWVRQAPGKGLEWISVIDTRGATYYADSVKGRFTISRDNAKNSLYLQMNSLRAEDTAVYYCARLGNFYYGMDVWGQGTTVTVSS VL: EIVLTQSPGTLSVSPGERATLSCRASQSIGSSLHWYQQKPGQAPRLLIKYASQSLSGIPDRFSGSGSGTDFTLTISRLEPEDFAVYYCHQSSRHPHTFGQGTKVEIK | 0.027 | 1e-06 | 37000 | 0.131 | 2.09e-05 | 160000
VRDN-02559 (antibody, V domains shown) VH: EVQLVQSGGGLVKPGGSLRLSCAASGFTFSSFHMHWVRQAPGKGLEWISVIDTRGATYYADSVKGRFTISRDNAKNSLYLQMNSLRAEDTAVYYCHRLGNFYYGMDVWGQGTTVTVSS VL: EIVLTQSPGTLSVSPGERATLSCRASQSIGSSLHWYQQKPGQAPRLLIKYASQSLSGIPDRFSGSGSGTDFTLTISRLEPEDFAVYYCHQSSRLPHTFGQGTKVEIK | 1.74 | 0.000567 | 327000 | 0.593 | 0.000503 | 849000
VRDN-02548 (antibody, V domains shown) VH: EVQLVQSGGGLVKPGGSLRLSCAASGFTFSSFAMHWVRQAPGKGLEWISVIDTRGATYYADSVKGRFTISRDNAKNSLYLQMNSLRAEDTAVYYCARLGNFYYGMDVWGQGTTVTVSS VL: EIVLTQSPGTLSVSPGERATLSCRASQSIGSSLHWYQQKPGQAPRLLIKYASQSLSGIPDRFSGSGSGTDFTLTISRLEPEDFAVYYCHQSHRLPHTFGQGTKVEIK | 0.0251 | 1e-06 | 39800 | 0.721 | 8.72e-05 | 121000
VRDN-02546 (antibody, V domains shown) VH: EVQLVQSGGGLVKPGGSLRLSCAASGFTFSSFAMHWVRQAPGKGLEWISVIDTRGATYYADSVKGRFTISRDNAKNSLYLQMNSLRAEDTAVYYCARLGNFYYGMDVWGQGTTVTVSS VL: EIVLTQSPGTLSVSPGERATLSCRASQSIGSSLHWYQQKPGQAPRLLIKYASQSLSGIPDRFSGSGSGTDFTLTISRLEPEDFAVYYCHHSSRLPHTFGQGTKVEIK | 0.0259 | 1e-06 | 38600 | 0.491 | 5.94e-05 | 121000
VRDN-02549 (antibody, V domains shown) VH: EVQLVQSGGGLVKPGGSLRLSCAASGFTFSSFAMHWVRQAPGKGLEWISVIDTRGATYYADSVKGRFTISRDNAKNSLYLQMNSLRAEDTAVYYCARLGNFYYGMDVWGQGTTVTVSS VL: EIVLTQSPGTLSVSPGERATLSCRASQSIGSSLHWYQQKPGQAPRLLIKYASQSLSGIPDRFSGSGSGTDFTLTISRLEPEDFAVYYCHQSSHLPHTFGQGTKVEIK | 0.0251 | 1e-06 | 39800 | 0.327 | 3.89e-05 | 119000
VRDN-02551 (antibody, V domains shown) VH: EVQLVQSGGGLVKPGGSLRLSCAASGFTFSSFAMHWVRQAPGKGLEWISVIDTRGATYYADSVKGRFTISRDNAKNSLYLQMNSLRAEDTAVYYCARLGNFYYGMDVWGQGTTVTVSS VL: EIVLTQSPGTLSVSPGERATLSCRASQSIGSSLHWYQQKPGQAPRLLIKYASQSLSGIPDRFSGSGSGTDFTLTISRLEPEDFAVYYCHQSSRLHHTFGQGTKVEIK | 0.0348 | 1e-06 | 28700 | 0.771 | 6.38e-05 | 82800
